T1: Livin β (Homo sapiens, UniProt Q96CA5)
T1 construct: expressed in transfected cells; host or cells: HeLa
T1 sequence (Q96CA5 1-280 isoform Q96CA5-2): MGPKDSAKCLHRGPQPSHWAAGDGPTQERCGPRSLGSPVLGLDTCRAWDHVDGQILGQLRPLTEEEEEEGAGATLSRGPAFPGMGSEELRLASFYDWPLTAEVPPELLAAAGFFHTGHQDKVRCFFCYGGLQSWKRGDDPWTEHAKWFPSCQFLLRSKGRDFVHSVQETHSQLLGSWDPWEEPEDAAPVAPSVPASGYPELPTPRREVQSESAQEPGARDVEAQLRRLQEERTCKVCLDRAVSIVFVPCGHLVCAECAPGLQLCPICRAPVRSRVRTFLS


Legend:
Livin β = molecular target: T1, Livin β; assay: Co-transfection of HeLa cells with Livin β and Smac plasmids, Western blot; type: cell-based; settings: data not shown
Description: Transfection of cultured Cells—HeLa cells were grown in DMEM supplemented with 10% fetal bovine serum. Cells were seeded onto 6-well plates the day before transfection and transfected at 70% confluence by using Lipofectin combined with Plus reagent (Invitrogen) according to the manufacture's protocols. The IAP expression plasmids (3 μg each for c-IAP1, c-IAP2 and XIAP, and 250 ng each for Livin αand Livin β) together with 2.5 μg of Smac expression plasmids or pcDNA3.1(−) blank plasmid were used for single-well transfection in the absence of antibiotics. The cells were harvested 12 hours after the transfection and lysed with 0.5% CHAPS in 20 mM HEPES (pH 7.4), 10 mM KCl, 1 mM MgCl2 and 1 mM DTT. The lysates were centrifuged and the protein concentrations of the supernatants were quantified by the modified Bradford method (36).
Western Blot analysis—Proteins were resolved by SDS-PAGE and transferred to nitrocellulose filters. The filters were blocked with 5% milk and probed with antibodies as indicated. The signals were visualized with the enhanced chemiluminescence method.
In the current study, Livin was also transiently expressed in HeLa cells to determine the ubiquitylation activity (see FIG. 3B). Briefly, Livin α WT or H269A mutant plasmids together with Smac WT or Smac ΔA mutant, or with pcDNA3.1(−) blank plasmid, were co-transfected into HeLa cells. […]

XIAP = XIAP (Homo sapiens, UniProt P98170); assay: In vitro ubiquitylation assay of purified XIAP; type: biochemical
XIAP, sequence (P98170 whole entry): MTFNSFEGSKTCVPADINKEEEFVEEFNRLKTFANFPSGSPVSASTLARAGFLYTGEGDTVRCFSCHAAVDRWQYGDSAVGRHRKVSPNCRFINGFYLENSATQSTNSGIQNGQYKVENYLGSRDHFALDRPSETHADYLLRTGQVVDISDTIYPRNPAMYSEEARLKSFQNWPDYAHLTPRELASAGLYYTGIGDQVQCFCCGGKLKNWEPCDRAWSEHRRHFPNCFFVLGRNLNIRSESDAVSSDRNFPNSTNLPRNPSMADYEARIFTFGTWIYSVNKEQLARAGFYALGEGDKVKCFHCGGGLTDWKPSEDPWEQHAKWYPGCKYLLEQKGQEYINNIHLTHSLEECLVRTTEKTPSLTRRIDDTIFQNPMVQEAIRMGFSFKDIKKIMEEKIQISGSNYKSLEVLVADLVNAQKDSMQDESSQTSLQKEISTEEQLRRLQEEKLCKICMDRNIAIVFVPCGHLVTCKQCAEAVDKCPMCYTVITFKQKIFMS
Description: (§1) In vitro ubiquitylation assays—In vitro ubiquitylation assays were carried out as previously described (29). IAP proteins (200 nM) were incubated with or without Smac polypeptide for 2 hours at 30° C. in a reaction system containing 50 mM Tris-HCl (pH 7.5), 50 mM NaCl, 2 mM Mg-ATP, 20 μM mammalian ubiquitin, 100 nM rabbit ubiquitin-activating enzyme (E1) and 400 nM of recombinant human ubiquitin-conjugating enzymes (E2). The reactions were stopped by adding equal volumes of 2×SDS sample loading buffer followed by Western Blot analysis.
To determine whether Smac promotes auto-ubiquitylation of XIAP, purified XIAP (without tag) was incubated for 2 hours at 30° C. either with or without different concentrations of Smac or with Smac ΔA in the reconstituted ubiquitylation reaction system (Ub Mix) consisting of 50 mM Tris-HCl (pH 7.5), 50 mM NaCl, 2 mM Mg-ATP, 20 μM mammalian ubiquitin, 100 nM rabbit ubiquitin-activating enzyme (E1) and 400 nM UbCH6 (E2). The reactions were stopped by adding equal volumes of 2×SDS sample loading buffer and the products were subjected to SDS-PAGE followed by immunoblotting with anti-XIAP antibody. The purified XIAP was active in directing poly-ubiquitylation. But the auto-ubiquitylation of XIAP was not enhanced by Smac.

c-IAP2 = molecular target: T2, c-IAP2 (Homo sapiens, UniProt Q13489); assay: In vitro ubiquitylation assay of c-IAP2; type: biochemical; settings: data not shown
T2 construct: produced not only the expected full length c-IAP1 or c-IAP2; expressed in transfected cells; host or cells: HeLa
T2 sequence (Q13489 whole entry): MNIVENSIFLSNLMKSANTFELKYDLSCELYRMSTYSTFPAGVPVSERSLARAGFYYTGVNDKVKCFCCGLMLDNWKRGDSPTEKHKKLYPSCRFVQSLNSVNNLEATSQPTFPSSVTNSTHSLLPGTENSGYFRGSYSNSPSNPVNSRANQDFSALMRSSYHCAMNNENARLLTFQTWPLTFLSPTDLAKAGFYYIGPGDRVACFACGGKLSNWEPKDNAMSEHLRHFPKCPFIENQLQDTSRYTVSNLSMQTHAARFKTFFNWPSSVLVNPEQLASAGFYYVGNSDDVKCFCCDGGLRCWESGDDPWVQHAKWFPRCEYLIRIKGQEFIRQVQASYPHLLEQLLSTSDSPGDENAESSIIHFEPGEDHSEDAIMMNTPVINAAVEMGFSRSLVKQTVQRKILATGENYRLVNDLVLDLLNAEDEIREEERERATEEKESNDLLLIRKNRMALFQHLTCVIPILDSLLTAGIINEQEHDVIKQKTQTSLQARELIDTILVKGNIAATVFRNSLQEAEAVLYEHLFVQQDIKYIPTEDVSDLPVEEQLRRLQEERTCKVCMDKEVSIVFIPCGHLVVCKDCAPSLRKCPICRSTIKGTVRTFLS
Description: as §1
The observation that Smac promotes c-IAP1 auto-ubiquitylation in HeLa cells was further confirmed in vitro by using UbCH6 as the E2.

Row | transfection results of Livin β (auto-ubiquitylation, degradation) (Livin β) | amount of ubiquitylated forms of XIAP with a high molecular weight of ~150 kDa (XIAP; UbCH6 as E2, FIG. 6) | auto-ubiquitylation of XIAP in vitro (XIAP; purified XIAP without tag, UbCH6 as E2, 2 hours at 30° C., FIG. 6) | c-IAP2 auto-ubiquitylation in vitro (c-IAP2) | Molecule
1 | substantially similar to that of Livin α | slightly reduced | not enhanced |  | Smac: wild type (WT) Smac polypeptide from Homo sapiens, SEQ ID NO 1, 239 amino acids; second mitochondria-derived activator of caspase (protein, listed as Homo sapiens) MAALKSWLSRSVTSFFRYRQCLCVPVVANFKKRCFSELIRPWHKTVTIGFGVTLCAVPIAQKSEPHSLSSEALMRRAVSLVTDSTSTFLSQTTYALIEAITEYTKAVYTLTSLYRQYTSLLGKMNSEEEDEVWQVIIGARAEMTSKHQEYLKLETTWMTAVGLSEMAAEAAYQTGADQASITARNHIQLVKLQVEEVHQLSRKAETKLAEAQIEELRQKTQEEGEERAESEQEAYLRED
2 |  |  |  | did not promote the E3 activity | Smac ΔA: Smac mutant lacking the initial Ala (Ala deletion mutant polypeptide), used as negative control (protein, UniProt Q9NR28 22-239, looked up, variant A1*) Diablo IAP-binding …: LCVPVVANFKKRCFSELIRPWHKTVTIGFGVTLCVPIAQKSEPHSLSSEALMRRAVSLVTDSTSTFLSQTTYALIEAITEYTKAVYTLTSLYRQYTSLLGKMNSEEEDEVWQVIIGARAEMTSKHQEYLKLETTWMTAVGLSEMAAEAAYQTGADQASITARNHIQLVKLQVEEVHQLSRKAETKLAEAQIEELRQKTQEEGEERAESEQEAYLRED

Source: US20060019335A1, “Compositions and methods to promote c-IAP autodegradation” (priority 2004, published 2006)
